Assay results published in paper doi:10.1101/292672.

Molecular target: SARS-CoV S 2P ectodomain (SARS-CoV (Tor2 strain)) (UniProt P59594)
Assay: cryo-EM structure

How did the stoichiometry N turn out when “SARS-CoV S 2P ectodomain (from UniProt P59594 14-1190) (domain or fragment)” was run?
Its stoichiometry N is 3.
